116 sequences from the supplement of paper PMC10724198 can be followed below.

± gives the standard deviation of the averaged measurements.
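Also: PSI is a weighted mean of sequencing reads over stability bins, variants kept only with over 10 reads, mCherry proximal and sfGFP distal, peptide attached via GGGS linker.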

For this data set, the system named is Saccharomyces cerevisiae. Nature of the data set: protein stability index of tFT-peptide fusion (C-terminal peptide) (PSI (0-1 scale)); higher = more stable (slower turnover). The conditions noted are these: genetic background: wild type; temperature: 30 C.
SSPEYIRNIQRS: the protein stability index is 0.62 ± 0.029.
As for SSPGFCRVFVFF, the protein stability index was 0.491 ± 0.018.
In the case of SSPHRFLCLPPP it was 0.639 ± 0.061.
As to SSPLPLPLHPPP, the protein stability index worked out at 0.7146 ± 0.0062.
In the case of SSPPRSLLSKSF it was 0.722 ± 0.017.
As for SSPSALSLLLSV, the protein stability index turned out to be 0.6876 ± 0.0049.
In the case of SSPSPSPPHLHP it was 0.712 ± 0.02; in that of SSQVELPVSVVW, 0.649 ± 0.058; in that of SSRGVTRRRLRE, 0.724 ± 0.15.
Next, SSRPLISTLTPY: 0.661 ± 0.014.
Next, SSRSMKKKKVKI: 0.7034 ± 0.0027; SSRVSLSTVCLL: 0.585 ± 0.019; SSSAPLPPSLPL: 0.791 ± 0.16.
SSSEGNRGSLQY registered a protein stability index of 0.774 ± 0.041.
In the case of SSSPPPPPPSPS it was 0.75 ± 0.12; in that of SSTALVFRLICL, 0.63 ± 0.016.
Next, SSVNRPTSWTKA: 0.739 ± 0.024; SSWRVPLSVLPI: 0.67 ± 0.014; STELQKMPQIEY: 0.722 ± 0.11.
In the case of STKQTTTTERAI it was 0.67 ± 0.013; in that of STPDRFVSRGRQ, 0.702 ± 0.043; in that of STPPGTPGISRQ, 0.723 ± 0.079.
For the sequence STPPLSLRPLLR, the protein stability index was found to be 0.608 ± 0.055.
Take STPSPLTLPPLP: the protein stability index was 0.695 ± 0.024.
In turn, STPSPSPTGLSR showed a protein stability index of 0.597 ± 0.065.
STPVKLPTSSLP showed a protein stability index of 0.663 ± 0.051.
Next, STQELHYCFVCL: 0.59 ± 0.022; STRPPVRYHGAS: 0.728 ± 0.066.
Next, STRRTSKCHQGI: 0.711 ± 0.019; STSAPPRVPTPR: 0.704 ± 0.078; STSSNGVGLPRL: 0.901 ± 0.11.
In the case of STVHLPAPAWGS it was 0.707 ± 0.033; in that of SVAGGGSACRGC, 0.646 ± 0.039.
Consider SVAWPRLLSISP, for which the protein stability index stood at 0.612 ± 0.0089.
In the case of SVCFPPCSSLPP it was 0.71 ± 0.19; in that of SVFGCLPFDLMV, 0.735 ± 0.0088; in that of SVFSPSTALLYP, 0.697 ± 0.02.
In the case of SVGGLAALLCGL it was 0.682 ± 0.037; in that of SVGGSLGAGGGG, 0.682 ± 0.064; in that of SVGKRRGVGVWN, 0.7007 ± 0.0031.
In the case of SVGLPPPPPFPP it was 0.629 ± 0.017.
Turning to SVGLQLAFSAAV, the protein stability index is 0.728 ± 0.061.
In the case of SVLALKGFCWLG it was 0.562 ± 0.042.
As for SVPPCSLPPLPP, the protein stability index was found to be 0.6407 ± 0.0048.
Next, SVPPTCLHDAHF: 0.713 ± 0.053; SVPSAWCWVSSS: 0.6 ± 0.038.
For the sequence SVPTPSSNPRVK, the protein stability index worked out at 0.698 ± 0.05.
Next, SVQIKKIRRKNN: 0.6227 ± 0.0037; SVRDRCKENERF: 0.658 ± 0.043.
SVRGMFPSAGVS showed a protein stability index of 0.6934 ± 0.00093.
For the sequence SVSDPLPPRQTV, the protein stability index stood at 0.721 ± 0.057.
Next, SVSEIGYEIRSL: 0.739 ± 0.068; SVSLSLLFFLPF: 0.675 ± 0.025.
On to SVTLVPPPLPFP, for which the protein stability index was determined as 0.677 ± 0.054.
In the case of SVVGNYHQTEPV it was 0.702 ± 0.059; in that of SVYTTGHTHTGR, 0.626 ± 0.17; in that of SWALELARPGEG, 0.718 ± 0.013.
Next, SWFLLEVLSDFK: 0.649 ± 0.014; SWFVGFDGAVGG: 0.774 ± 0.088.
In the case of SWGGELGATSGG it was 0.708 ± 0.024.
SWGGLGSFCRVI displayed a protein stability index of 0.684 ± 0.014.
Next, SWGRYSYIEVMR: 0.7022 ± 0.0057; SWKFAFWCFLGR: 0.5675 ± 0.0056.
The sequence SWPIWGSCGWRR yielded a protein stability index of 0.739 ± 0.11.
In the case of SWSLIFFGYFPF it was 0.591 ± 0.029; in that of SYFVSGADSLIL, 0.635 ± 0.017.
In the case of SYGDPSTTRLSP it was 0.701 ± 0.063; in that of SYGPSGEFSFSF, 0.702 ± 0.0075.
Next, SYHRAAPFQSCD: 0.8 ± 0.12; SYPLSRPCSPCD: 0.677 ± 0.068.
On to SYRGIGVGLCAG, for which the protein stability index was 0.622 ± 0.016.
In the case of SYTLSGYGSRDN it was 0.698 ± 0.018; in that of TAAEECIGRAIG, 0.671 ± 0.04; in that of TAAHRASGEIAC, 0.684 ± 0.062.
In the case of TAGVQSGCTRII it was 0.618 ± 0.052.
Next, TAHHTRPQYLPL: 0.622 ± 0.022; TAKVYEKEGGEE: 0.671 ± 0.019.
TAPPSISYVQAF displayed a protein stability index of 0.639 ± 0.021.
Next, TARGAAARSSQL: 0.747 ± 0.071; TASRSSRADERA: 0.591 ± 0.033.
Turning to TCFYYVGGEKCM, the protein stability index was 0.665 ± 0.0077.
TCLGYKLHPARG returned a protein stability index of 0.718 ± 0.031.
In turn, TCVASLSVLCLL yielded a protein stability index of 0.574 ± 0.048.
Next, TDHTNCARDLGA: 0.664 ± 0.054; TDSRPKVGKRGN: 0.6583 ± 0.0025.
In the case of TDWLMQRILRPF, the protein stability index turned out to be 0.718 ± 0.028.
In the case of TEGGKIEGGGRK it was 0.682 ± 0.087; in that of TEINEAQNIPEK, 0.6688 ± 0.0027; in that of TEKRMIINIKIK, 0.735 ± 0.03.
In the case of TERPPRRPKSQG it was 0.715 ± 0.038; in that of TFLGEAGSVGVT, 0.646 ± 0.03; in that of TFSFSRPPLPPA, 0.6853 ± 0.0066.
Next, TFSPRLRPPPPP: 0.7078 ± 0.0041.
The sequence TFTESRLRMRLG gave a protein stability index of 0.623 ± 0.086.
As for TFVSPPPHPLRP, the protein stability index turned out to be 0.636 ± 0.055.
Regarding TGIGCRFIWCSK, the protein stability index was 0.65 ± 0.037.
Next, TGLRLFGVLSLI: 0.607 ± 0.016.
In turn, TGPGCWVCCVGE gave a protein stability index of 0.648 ± 0.048.
As to TGSGQVSREERS, the protein stability index was determined as 0.671 ± 0.036.
Next, TGVRSAEAKRKQ: 0.579 ± 0.05; THPRPTLTRCST: 0.734 ± 0.081; THPTCPLHLLPT: 0.699 ± 0.039.
Next, THSQPPQYSRVP: 0.638 ± 0.071; THTPPPHRPSNR: 0.682 ± 0.22; TICRKPTLMSPQ: 0.775 ± 0.061.
Next, TICVILNGVGYS: 0.625 ± 0.11; TIGPSYLLPDSF: 0.784 ± 0.018; TINSHNYKTKTP: 0.664 ± 0.021.
For TIPPSTRAITPV, the protein stability index was 0.652 ± 0.046.
Next, TIRKNKTDVISK: 0.667 ± 0.017.
In the case of TISHYSLAPTQI it was 0.695 ± 0.02.
Next, TITRIAFRFCYS: 0.556 ± 0.032; TIVFLLPSPRSY: 0.657 ± 0.0094.
On to TKKSKRKREQAE, for which the protein stability index turned out to be 0.68 ± 0.026.
Next, TKRGQMLYQDKE: 0.741 ± 0.1; TKRIKEERTKKC: 0.65 ± 0.025.
